Laboratory results reported in patent US12195506B2, “Immunotherapy with A*01 restricted peptides and combination of peptides against cancers and related methods” (Immatics Biotechnologies GmbH, priority 2018, dated 2025).

target: HLA-A*01:01 (Homo sapiens, UniProt P04439, A114D/A174V/A182V/D101N/D185E/E176A/E190D/L180R/Q94H/R68K/S129P/T187R/V100A/V91M/W191G); assay: MHC binding assay: UV-ligand exchange, ELISA of stabilized MHC complexes (peptide exchange yield); conditions: binding to HLA-A*01:01, UV-ligand exchange
Text: Candidate peptides for T cell based therapies according to the present invention were further tested for their MHC binding capacity (affinity). The individual peptide-MHC complexes were produced by UV-ligand exchange, where a UV-sensitive peptide is cleaved upon UV-irradiation and exchanged with the peptide of interest as analyzed. Only peptide candidates that can effectively bind and stabilize the peptide-receptive MHC molecules prevent dissociation of the MHC complexes. To determine the yield of the exchange reaction, an ELISA was performed based on the detection of the light chain (β2m) of stabilized MHC complexes. The assay was performed as generally described in Rodenko et al. (Rodenko et al., 2006)
96 well MAXISorp plates (NUNC) were coated over night with 2 ug/ml streptavidin in PBS at room temperature, washed 4× and blocked for 1 h at 37° C. in 2% BSA containing blocking buffer. Refolded HLA-A*02:01/MLA-001 monomers served as standards, covering the range of 15-500 ng/ml. Peptide-MHC monomers of the UV-exchange reaction were diluted 100-fold in blocking buffer. Samples were incubated for 1 h at 37° C., washed four times, incubated with 2 ug/ml HRP conjugated anti-β2m for 1 h at 37° C., washed again and detected with TMB solution that is stopped with […]. Absorption was measured at 450 nm.

Substance | Peptide exchange
296 (HMLAAMAY; listed as Homo sapiens) [compound 296] | ++ (>20% = ++)
187 (TQKSVQVLAY; listed as Homo sapiens) [compound 187] | ++ (>20% = ++)
112 (KASSVSAEDGY; listed as Homo sapiens) [compound 112] | ++ (>20% = ++)
152 (YLEDRPLSQ; listed as Homo sapiens) [compound 152] | ++ (>20% = ++)
143 (HVSGQMLYF; listed as Homo sapiens) [compound 143] | ++ (>20% = ++)
376 (EDDEDEDLY; listed as Homo sapiens) [compound 376] | +++ (>50 = +++)
126 (TTDPKKFQY; listed as Homo sapiens) [compound 126] | ++++ (>75% = ++++)
3 (FGTTPAAEYF; listed as Homo sapiens) [compound 3] | ++ (>20% = ++)
23 (DTDPLKAAGL; listed as Homo sapiens) [compound 23] | + (>10% =+)
204 (NVKEAPTEY; listed as Homo sapiens) [compound 204] | ++ (>20% = ++)
205 (RMQEGSEVY; listed as Homo sapiens) [compound 205] | ++ (>20% = ++)
336 (ATNIQLNIDTY; listed as Homo sapiens) [compound 336] | +++ (>50 = +++)
275 (ESDEMENLLTY; listed as Homo sapiens) [compound 275] | +++ (>50 = +++)
362 (SGALDEAAAY; listed as Homo sapiens) [compound 362] | ++ (>20% = ++)
231 (LLPLLVMAY; listed as Homo sapiens) [compound 231] | ++ (>20% = ++)
369 (AVMEAAFVY; listed as Homo sapiens) [compound 369] | +++ (>50 = +++)
59 (FTDSQGNDIK; listed as Homo sapiens) [compound 59] | +++ (>50 = +++)
310 (KAFQELGVRY; listed as Homo sapiens) [compound 310] | ++ (>20% = ++)
154 (SIEVFTHY; listed as Homo sapiens) [compound 154] | +++ (>50 = +++)
244 (VTKYIAGPY; listed as Homo sapiens) [compound 244] | ++ (>20% = ++)

Substance | Peptide exchange
57 (ASDPASSTSCY; listed as Homo sapiens) [compound 57] | +++ (>50 = +++)
166 (YHRICELLSDY; listed as Homo sapiens) [compound 166] | ++++ (>75% = ++++)
242 (GTNLPTLLW; listed as Homo sapiens) [compound 242] | + (>10% =+)
202 (QTDINGGSLK; listed as Homo sapiens) [compound 202] | +++ (>50 = +++)
165 (VSVYNSYPY; listed as Homo sapiens) [compound 165] | ++ (>20% = ++)
309 (EVDRNLIQY; listed as Homo sapiens) [compound 309] | +++ (>50 = +++)
68 (QSLPEFGLTY; listed as Homo sapiens) [compound 68] | ++ (>20% = ++)
389 (YYDLVESTF; listed as Homo sapiens) [compound 389] | + (>10% =+)
74 (EMEQQSQEY; listed as Homo sapiens) [compound 74] | ++++ (>75% = ++++)
171 (ITDFGLAKL; listed as Homo sapiens) [compound 171] | ++ (>20% = ++)
312 (VTDGINPLI; listed as Homo sapiens) [compound 312] | ++ (>20% = ++)
358 (YMSPDIALLY; listed as Homo sapiens) [compound 358] | ++++ (>75% = ++++)
302 (FYLSTPENYHY; listed as Homo sapiens) [compound 302] | +++ (>50 = +++)
172 (FSEPFHLIV; listed as Homo sapiens) [compound 172] | +++ (>50 = +++)
185 (NSDESADSEPHKY; listed as Homo sapiens) [compound 185] | ++++ (>75% = ++++)
249 (GVGFTELEY; listed as Homo sapiens) [compound 249] | +++ (>50 = +++)
50 (ITDEDEDMLSY; listed as Homo sapiens) [compound 50] | +++ (>50 = +++)
268 (AILHHLYFY; listed as Homo sapiens) [compound 268] | + (>10% =+)
339 (ESMDIFPLGW; listed as Homo sapiens) [compound 339] | ++ (>20% = ++)
164 (KLAGTVFQY; listed as Homo sapiens) [compound 164] | ++ (>20% = ++)

Substance | Peptide exchange
352 (YPVVVAESMY; listed as Homo sapiens) [compound 352] | ++ (>20% = ++)
194 (CYTADNEMGY; listed as Homo sapiens) [compound 194] | +++ (>50 = +++)
392 (TQHFVQENY; listed as Homo sapiens) [compound 392] | ++ (>20% = ++)
245 (LSDNAANRY; listed as Homo sapiens) [compound 245] | +++ (>50 = +++)
208 (LLISKAEDY; listed as Homo sapiens) [compound 208] | ++ (>20% = ++)
21 (LSSAVNPIIY; listed as Homo sapiens) [compound 21] | ++ (>20% = ++)
322 (FSELNPLALY; listed as Homo sapiens) [compound 322] | ++++ (>75% = ++++)
258 (RPSSVLTIY; listed as Homo sapiens) [compound 258] | +++ (>50 = +++)
44 (IPSFNEMVY; listed as Homo sapiens) [compound 44] | ++ (>20% = ++)
334 (PSSMPECLSY; listed as Homo sapiens) [compound 334] | ++++ (>75% = ++++)
90 (YEDHFPLLF; listed as Homo sapiens) [compound 90] | ++ (>20% = ++)
366 (ITVDVRDEF; listed as Homo sapiens) [compound 366] | + (>10% =+)
119 (TVFDENLSRY; listed as Homo sapiens) [compound 119] | ++ (>20% = ++)
351 (VLDPMLDFY; listed as Homo sapiens) [compound 351] | ++++ (>75% = ++++)
324 (RTGIFPYRF; listed as Homo sapiens) [compound 324] | ++ (>20% = ++)
260 (KPTEDSANVY; listed as Homo sapiens) [compound 260] | +++ (>50 = +++)
167 (RAVQPGETY; listed as Homo sapiens) [compound 167] | +++ (>50 = +++)
40 (TSDQLGYSY; listed as Homo sapiens) [compound 40] | +++ (>50 = +++)
347 (SADHPGLTF; listed as Homo sapiens) [compound 347] | ++ (>20% = ++)
226 (QITPKHNGLY; listed as Homo sapiens) [compound 226] | ++ (>20% = ++)
